We go through two molecules from patent US12227579B2, “Bispecific antibody targeting IL-1R1 and NLPR3” (University of Ulster, priority 2018, dated 2025).

One assay has as its target NLRP3 inflammasome (Homo sapiens, UniProt Q96P20). As to the kind of experiment: NLRP3 assembly in vitro assay. The settings on record: among hybridoma clones.
Assay [1] concerns THP1 cells. As to the kind of experiment: IL-1β release from LPS/ATP-stimulated differentiated THP1 cells (ELISA). In kind it is cell-based. The following applies: PMA-differentiated THP1, LPS 1 μg/ml 3 h, Ab 0.0025-2.5 ng/ml (FIG. 33a) or 1 nM (FIG. 33b) 30 min, ATP 5 mM 1 h; supernatant ELISA. The procedure: THP1 cells, for FIGS. 33a and b, were cultured in 96-well plates at 100,000 cells/200 μl complete media. PMA (100 μg/ml for 72 hours) was used to differentiate THP-1 cells into macrophages. Following 24 hours of rest, differentiated THP1 cells were stimulated with LPS (1 μg/ml) for 3 hours, treated with MCC950 (1 μM) or the IL-1R1/NLRP3 Ab in a dose dependent fashion from 0.0025 ng/ml to 2.5 ng/ml for FIG. 33a or with IL-1R1/NLRP3 Ab (1 nM) for FIG. 33b or with IgG control antibody for 30 minutes, followed by ATP (5 mM) for 1 hour. IL-1 release was measured in the supernatant by ELISA.

Assay [2] deals with THP1 cells. As to the kind of experiment: Caspase-1 activation in THP1 cells (FAM-FLICA staining, confocal). In kind it is cell-based. The procedure: THP1 cells, for FIG. 34, were cultured in 96-well plates at 100,000 cells/200 ul complete media. PMA ([…] for 72 hours) was used to differentiated THP-1 cells into macrophages. Following 24 hours of rest, differentiated THP1 cells were stimulated with LPS (1 ug/ml) for 3 hours, treated with the IL-1R1/NLRP3 Ab (1 ug/ml) for 30 minutes, followed by ATP (5 mM) for 1 hour. Caspase-1 activation was assessed by staining cells with a non-cytotoxic Fluorescent Labelled Inhibitor of Caspase-1 (FAM-FLICA) and DAPI (nuclear stain). Cells were treated with LPS alone (negative control), LPS+ATP (positive control), mouse IgG2a (1 ug/ml, Ab control), or IL-1 r/NLRP3 bi-specific Ab (1 ug/ml, experimental). Representative confocal images are shown for each group. Green=active caspae-1 and blue=Dapi/nuclear stain.
(§1) Internalization of Inflamab—see FIG. 35. THP1 cells, for FIG. 35, were cultured in 96-well plates at 100,000 cells/200 ul complete media. Differentiation of THP1 cells was induced by PMA (100 ug/ml for 72 hours). Following 24 hours of rest, differentiated THP1 cells were stimulated with LPS (1 ug/ml) for 3 hours, treated with a pHrodo red labelled IL-1 r/NLRP3 Ab (1 ug/ml) for 30 minutes, followed by ATP (5 mM) for 1 hour. The internalization of the Ab was tracked using a pHrodo red labelled bi-specific Ab that only fluoresces when internalized.

Assay [3] relates to THP1 cells. As to the kind of experiment: Internalization of pHrodo red labelled bi-specific Ab in THP1 cells. The class given is cell-based. The settings on record: pHrodo red labelled Ab 1 ug/ml 30 min, LPS then ATP; confocal image. On the procedure: as §1
Assay [4] relates to microbead-induced mouse model of glaucoma. As to the kind of experiment: Microbead-induced mouse model of glaucoma. The class given is in vivo. The procedure: In the current study, WT C57BL/6J mice are receiving a single intravitreal injection of Inflamab (final vitreous concentration of 2.5, 25, or 250 ng/ml) on Day 0, immediately preceding the injection of microbeads and mice receiving saline only (no beads) are serving as a non-glaucoma control. RGC function is currently being measured by pERG using a fully integrated ERG system for rodents (Celeris). Changes in pERG amplitude is being measured in mice that received microbeads only and compared to mice that received microbeads plus Inflamab (final vitreous concentration of 2.5, 25, and 250 ng/ml) or saline only (no beads) [FIG. 42]. […] Visual acuity using an optomotor reflex-based spatial frequency threshold test, as well as RGC and axon quantification, is performed to further corroborate the neuroprotective effect of Inflamab and including additional control groups (microbead-injected mice treated with the appropriate IgG control antibody).
RGC analysis in WT mice treated with the NLRP3 inhibitor MCC950—see FIG. 41. […]
RGC function in WT mice treated with the NLRP3 inhibitor InflaMab—see FIG. 42. […] RGC function was measured by pERG using a fully integrated ERG system for rodents (Celeris) and changes in pERG amplitude was measured in mice that received microbeads only and compared to mice that received microbeads plus Inflamab (2.5, 25, and 250 ng/ml) or saline only (no beads). […]

Chain of NLRP3 inflammasome (Q96P20 whole entry): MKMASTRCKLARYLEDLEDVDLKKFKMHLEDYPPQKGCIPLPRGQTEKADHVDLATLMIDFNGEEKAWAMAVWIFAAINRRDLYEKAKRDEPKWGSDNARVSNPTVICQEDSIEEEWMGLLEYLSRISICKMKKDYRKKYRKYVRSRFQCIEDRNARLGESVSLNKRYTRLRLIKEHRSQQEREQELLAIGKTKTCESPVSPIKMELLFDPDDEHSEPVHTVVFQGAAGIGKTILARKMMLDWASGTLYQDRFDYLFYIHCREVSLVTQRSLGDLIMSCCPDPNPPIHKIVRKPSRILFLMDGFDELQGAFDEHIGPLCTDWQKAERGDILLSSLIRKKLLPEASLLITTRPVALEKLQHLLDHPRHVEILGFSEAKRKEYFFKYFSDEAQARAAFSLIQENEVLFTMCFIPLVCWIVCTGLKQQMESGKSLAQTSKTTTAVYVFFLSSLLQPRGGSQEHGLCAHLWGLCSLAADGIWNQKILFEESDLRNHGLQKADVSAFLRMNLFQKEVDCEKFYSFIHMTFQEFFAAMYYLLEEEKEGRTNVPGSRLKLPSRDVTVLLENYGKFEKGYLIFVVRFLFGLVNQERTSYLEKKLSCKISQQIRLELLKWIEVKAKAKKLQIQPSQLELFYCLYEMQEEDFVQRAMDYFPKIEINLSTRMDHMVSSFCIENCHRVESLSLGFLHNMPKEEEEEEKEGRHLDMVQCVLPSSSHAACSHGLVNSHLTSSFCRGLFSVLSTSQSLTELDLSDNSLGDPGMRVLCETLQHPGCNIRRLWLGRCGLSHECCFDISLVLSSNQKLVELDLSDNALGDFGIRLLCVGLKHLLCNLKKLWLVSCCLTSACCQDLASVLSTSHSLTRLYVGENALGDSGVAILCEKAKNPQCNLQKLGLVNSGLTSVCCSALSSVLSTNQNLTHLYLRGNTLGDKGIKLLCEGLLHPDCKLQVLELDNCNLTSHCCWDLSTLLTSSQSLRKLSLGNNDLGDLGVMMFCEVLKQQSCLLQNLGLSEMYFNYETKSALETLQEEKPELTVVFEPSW

B1: F226 7A7-1E1-2D5: anti-NLRP3 monoclonal antibody from hybridoma clone, sequenced and used in the bispecific (antibody, V domains shown)
VH: EVQLVESGGGLVKPGGSLKLSCAASGFTFSDYYMYWVRQTPEKRLEWVATISDGGTYTYYPDSVKGRFTISRDNAKNNLYLQMNSLKSEDTAMYYCARGWVSTMVKLLSSFPYWGQGTLVTVSAAKTTPPSVYPLA
VL: QAVVTQESALTTSPGETVTLTCRSSTGAVTTSNYANWVQEKPDHLFTGLIGGTNNRAPGVPARFSGSLIGDKAALTITGAQTEDEAIYFCALWYSNYWVFGGGTKLTVLGQPKSSPSVTLFPPSTEKLSL
In the case of B1, the “preventing NLRP3 assembly” value with NLRP3 inflammasome is listed as “most active”.

B2: InflaMab: 210 kDa bispecific mouse antibody against IL-1R1 and NLRP3; light chain SEQ ID NO: 57, heavy chain SEQ ID NO: 59 (antibody)
heavy: MGWTLVFLFLLSVTAGVHSQIQLVQSGPELRKPGETVRISCKASGYPFTTAGLQWVQKMSGKGLKWIGWMNTQSEVPKYAEEFKGRIAFSLETAASTAYLQINNLKTEDTATYFCAKSVYFNWRYFDVWGAGTTVTVSSAKTTAPSVYPLAPVCGDTTGSSVTLGCLVKGYFPEPVTLTWNSGSLSSGVHTFPAVLQSDLYTLSSSVTVTSSTWPSQSITCNVAHPASSTKVDKKIEPRGPTIKPCPPCKCPAPNLLGGPSVFIFPPKIKDVLMISLSPIVTCVVVDVSEDDPDVQISWFVNNVEVHTAQTQTHREDYNSTLRVVSALPIQHQDWMSGKEFKCKVNNKDLPAPIERTISKPKGSVRAPQVYVLPPPEEEMTKKQVTLTCMVTDFMPEDIYVEWTNNGKTELNYKNTEPVLDSDGSYFMYSKLRVEKKNWVERNSYSCSVVHEGLHNHHTTKSFSRTPGKGSAGGSGGDSEVQLVESGGGLVKPGGSLKLSCAASGFTFSDYYMYWVRQTPEKRLEWVATISDGGTYTYYPDSVKGRFTISRDNAKNNLYLQMNSLKSEDTAMYYCARGWVSTMVKLLSSFPYWGQGTLVTVSAGGGGSGGGGSGGGGSQAVVTQESALTTSPGETVTLTCRSSTGAVTTSNYANWVQEKPDHLFTGLIGGTNNRAPGVPARFSGSLIGDKAALTITGAQTEDEAIYFCALWYSNYWVFGGGTKLTVLGQPK
light: MVSSAQFLGLLLLCFQGTRCDIVMTQSPATLSVTPGDRVSLSCRASQSISDYLSWYQQRSHESPRLIIKYASQSISGIPSRFSGSGSGSDFTLSINSVEPEDVGVYYCQHGHSFPLTFGSGTKLELKRADAAPTVSIFPPSSEQLTSGGASVVCFLNNFYPKDINVKWKIDGSERQNGVLNSWTDQDSKDSTYSMSSTLTLTKDEYERHNSYTCEATHKTSTSPIVKSFNRNEC
In the case of B2, the IL-1β release entry in the assay with THP1 cells [1] is listed as “prevents IL-1β release”. Besides, the caspase-1 activation entry in the assay with THP1 cells [2] (differentiated THP1, LPS 1 ug/ml 3 h, Ab 1 ug/ml 30 min, ATP 5 mM 1 h, FAM-FLICA) is given as “prevents caspase-1 activation”. Also, in the assay with THP1 cells [2] (pHrodo red labelled Ab 1 ug/ml, compared to THP1 cells that did not internalize the Ab), the “caspase-1 activation in THP1 cells that have internalized the Ab” value is on record as “significant reduction of caspase-1 activation”. Besides, in the assay with THP1 cells [3], the “internalization of the Ab” value is “internalization”. In addition, the “death of RGCs” value in assay [4] (InflaMab, FIG. 42 title) is reported as “prevents death of RGCs”. The “RGC function (pERG amplitude)” value in assay [4] (single intravitreal injection Day 0, final vitreous concentration 250 ng/ml, compared to microbeads only or Inflamab at 2.5 or 25 ng/ml, preliminary) is listed as “recovery of RGC function”.
